Results published in IntAct's records for PubMed 31515488.

B1: Cell division cycle 7-related protein kinase (Homo sapiens), O00311 (parent)
chain: MEASLGIQMDEPMAFSPQRDRFQAEGSLKKNEQNFKLAGVKKDIEKLYEAVPQLSNVFKIEDKIGEGTFSSVYLATAQLQVGPEEKIALKHLIPTSHPIRIAAELQCLTVAGGQDNVMGVKYCFRKNDHVVIAMPYLEHESFLDILNSLSFQEVREYMLNLFKALKRIHQFGIVHRDVKPSNFLYNRRLKKYALVDFGLAQGTHDTKIELLKFVQSEAQQERCSQNKSHIITGNKIPLSGPVPKELDQQSTTKASVKRPYTNAQIQIKQGKDGKEGSVGLSVQRSVFGERNFNIHSSISHESPAVKLMKQSKTVDVLSRKLATKKKAISTKVMNSAVMRKTASSCPASLTCDCYATDKVCSICLSRRQQVAPRAGTPGFRAPEVLTKCPNQTTAIDMWSAGVIFLSLLSGRYPFYKASDDLTALAQIMTIRGSRETIQAAKTFGKSILCSKEVPAQDLRKLCERLRGMDSSTPKLTSDIQGHASHQPAISEKTDHKASCLVQTPPGQYSGNSFKKGDSNSCEHCFDEYNTNLEGWNEVPDEAYDLLDKLLDLNPASRITAEEALLHPFFKDMSL
partner: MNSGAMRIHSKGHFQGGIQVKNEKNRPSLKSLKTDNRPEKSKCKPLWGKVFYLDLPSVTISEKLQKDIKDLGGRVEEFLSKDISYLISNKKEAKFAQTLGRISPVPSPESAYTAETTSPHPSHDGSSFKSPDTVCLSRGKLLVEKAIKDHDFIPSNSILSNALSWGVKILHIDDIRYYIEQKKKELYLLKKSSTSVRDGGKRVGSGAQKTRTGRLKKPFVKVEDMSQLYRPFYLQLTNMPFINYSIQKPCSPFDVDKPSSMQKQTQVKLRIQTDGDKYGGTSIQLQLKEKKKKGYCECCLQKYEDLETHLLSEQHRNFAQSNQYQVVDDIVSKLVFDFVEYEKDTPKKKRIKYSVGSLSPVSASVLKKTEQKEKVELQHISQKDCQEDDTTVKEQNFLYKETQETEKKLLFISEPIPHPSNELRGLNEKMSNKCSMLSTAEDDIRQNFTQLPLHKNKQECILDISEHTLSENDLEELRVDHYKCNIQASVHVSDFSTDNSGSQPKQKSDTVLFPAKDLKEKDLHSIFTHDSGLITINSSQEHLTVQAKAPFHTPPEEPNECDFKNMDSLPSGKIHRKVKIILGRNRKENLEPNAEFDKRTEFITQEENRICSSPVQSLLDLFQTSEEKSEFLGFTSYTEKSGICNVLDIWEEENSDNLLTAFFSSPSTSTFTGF
B2: Cancer/testis antigen 2 (Homo sapiens), O75638 (parent)
chain: MQAEGRGTGGSTGDADGPGGPGIPDGPGGNAGGPGEAGATGGRGPRGAGAARASGPRGGAPRGPHGGAASAQDGRCPCGARRPDSRLLELHITMPFSSPMEAELVRRILSRDAAPLPRPGAVLKDFTVSGNLLFMSVRDQDREGAGRMRVVGWGLGSASPEGQKARDLRTPKHKVSEQRPGTPGPPPPEGAQGDGCRGVAFNVMFSAPHI
B3: Nebulette (Homo sapiens), O76041 (parent)
chain: MRVPVFEDIKDETEEEKIGEEENEEDQVFYKPVIEDLSMELARKCTELISDIRYKEEFKKSKDKCTFVTDSPMLNHVKNIGAFISEAKYKGTIKADLSNSLYKRMPATIDSVFAGEVTQLQSEVAYKQKHDAAKGFSDYAHMKEPPEVKHAMEVNKHQSNISYRKDVQDTHTYSAELDRPDIKMATQISKIISNAEYKKGQGIMNKEPAVIGRPDFEHAVEASKLSSQIKYKEKFDNEMKDKKHHYNPLESASFRQNQLAATLASNVKYKKDIQNMHDPVSDLPNLLFLDHVLKASKMLSGREYKKLFEENKGMYHFDADAVEHLHHKGNAVLQSQVKYKEEYEKNKGKPMLEFVETPSYQASKEAQKMQSEKVYKEDFEKEIKGRSSLDLDKTPEFLHVKYITNLLREKEYKKDLENEIKGKGMELNSEVLDIQRAKRASEMASEKEYKKDLESIIKGKGMQAGTDTLEMQHAKKAAEIASEKDYKRDLETEIKGKGMQVSTDTLDVQRAKKASEMASQKQYKKDLENEIKGKGMQVSMDIPDILRAKRTSEIYSQRKYKDEAEKMLSNYSTIADTPEIQRIKTTQQNISAVFYKKEVGAGTAVKDSPEIERVKKNQQNISSVKYKEEIKHATAISDPPELKRVKENQKNISNLQYKEQNYKATPVSMTPEIERVRRNQEQLSAVKYKGELQRGTAISDPPELKRAKENQKNISNVYYRGQLGRATTLSVTPEMERVKKNQENISSVKYTQDHKQMKGRPSLILDTPAMRHVKEAQNHISMVKYHEDFEKTKGRGFTPVVDDPVTERVRKNTQVVSDAAYKGVHPHIVEMDRRPGIIVDLKVWRTDPGSIFDLDPLEDNIQSRSLHMLSEKASHYRRHWSRSHSSSTFGTGLGDDRSEISEIYPSFSCCSEVTRPSDEGAPVLPGAYQQSHSQGYGYMHQTSVSSMRSMQHSPNLRTYRAMYDYSAQDEDEVSFRDGDYIVNVQPIDDGWMYGTVQRTGRTGMLPANYIEFVN
B4: Pachytene checkpoint protein 2 homolog (Homo sapiens), Q15645 (parent)
chain: MDEAVGDLKQALPCVAESPTVHVEVHQRGSSTAKKEDINLSVRKLLNRHNIVFGDYTWTEFDEPFLTRNVQSVSIIDTELKVKDSQPIDLSACTVALHIFQLNEDGPSSENLEEETENIIAANHWVLPAAEFHGLWDSLVYDVEVKSHLLDYVMTTLLFSDKNVNSNLITWNRVVLLHGPPGTGKTSLCKALAQKLTIRLSSRYRYGQLIEINSHSLFSKWFSESGKLVTKMFQKIQDLIDDKDALVFVLIDEVESLTAARNACRAGTEPSDAIRVVNAVLTQIDQIKRHSNVVILTTSNITEKIDVAFVDRADIKQYIGPPSAAAIFKIYLSCLEELMKCQIIYPRQQLLTLRELEMIGFIENNVSKLSLLLNDISRKSEGLSGRVLRKLPFLAHALYVQAPTVTIEGFLQALSLAVDKQFEERKKLAAYI
partner: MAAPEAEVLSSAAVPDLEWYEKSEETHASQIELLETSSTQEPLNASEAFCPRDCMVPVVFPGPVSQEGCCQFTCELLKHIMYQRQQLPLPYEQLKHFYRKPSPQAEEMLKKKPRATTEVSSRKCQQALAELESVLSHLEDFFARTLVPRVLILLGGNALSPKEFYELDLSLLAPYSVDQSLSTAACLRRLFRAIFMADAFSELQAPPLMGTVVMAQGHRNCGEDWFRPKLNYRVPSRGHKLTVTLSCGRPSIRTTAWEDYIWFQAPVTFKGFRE
B5: Septin-12 (Homo sapiens), Q8IYM1 (parent)
chain: MDPLRRSPSPCLSSQPSSPSTPPCEMLGPVGIEAVLDQLKIKAMKMGFEFNIMVVGQSGLGKSTMVNTLFKSKVWKSNPPGLGVPTPQTLQLHSLTHVIEEKGVKLKLTVTDTPGFGDQINNDNCWDPILGYINEQYEQYLQEEILITRQRHIPDTRVHCCVYFVPPTGHCLRPLDIEFLQRLCRTVNVVPVIARADSLTMEEREAFRRRIQQNLRTHCIDVYPQMCFDEDINDKILNSKLRDRIPFAVVGADQEHLVNGRCVLGRKTKWGIIEVENMAHCEFPLLRDLLIRSHLQDLKDITHNIHYENYRVIRLNESHLLPRGPGWVNLAPASPGQLTTPRTFKVCRGAHDDSDDEF
partner: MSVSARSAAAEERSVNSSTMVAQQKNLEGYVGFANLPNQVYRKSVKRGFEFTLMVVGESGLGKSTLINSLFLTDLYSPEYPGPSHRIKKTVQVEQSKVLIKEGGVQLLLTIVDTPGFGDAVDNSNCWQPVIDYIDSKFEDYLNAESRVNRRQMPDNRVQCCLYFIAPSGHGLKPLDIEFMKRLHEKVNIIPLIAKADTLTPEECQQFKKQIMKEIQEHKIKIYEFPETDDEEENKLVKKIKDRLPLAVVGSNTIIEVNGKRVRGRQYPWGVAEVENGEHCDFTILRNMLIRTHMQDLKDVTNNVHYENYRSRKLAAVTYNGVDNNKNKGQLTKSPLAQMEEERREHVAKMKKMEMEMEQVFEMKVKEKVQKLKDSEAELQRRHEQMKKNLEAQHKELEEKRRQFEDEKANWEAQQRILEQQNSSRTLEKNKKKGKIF

Variants of: B1
Conditions: with dbf4a_human DBF4, Q9UBU7

effect of a mutation on the interaction | Variant
with no effect | I99T

Variants of: B2
Conditions: with ubql1_human UBQLN1, Q9UMX0
Chain of ubql1_human UBQLN1, Q9UMX0 (Q9UMX0 whole entry): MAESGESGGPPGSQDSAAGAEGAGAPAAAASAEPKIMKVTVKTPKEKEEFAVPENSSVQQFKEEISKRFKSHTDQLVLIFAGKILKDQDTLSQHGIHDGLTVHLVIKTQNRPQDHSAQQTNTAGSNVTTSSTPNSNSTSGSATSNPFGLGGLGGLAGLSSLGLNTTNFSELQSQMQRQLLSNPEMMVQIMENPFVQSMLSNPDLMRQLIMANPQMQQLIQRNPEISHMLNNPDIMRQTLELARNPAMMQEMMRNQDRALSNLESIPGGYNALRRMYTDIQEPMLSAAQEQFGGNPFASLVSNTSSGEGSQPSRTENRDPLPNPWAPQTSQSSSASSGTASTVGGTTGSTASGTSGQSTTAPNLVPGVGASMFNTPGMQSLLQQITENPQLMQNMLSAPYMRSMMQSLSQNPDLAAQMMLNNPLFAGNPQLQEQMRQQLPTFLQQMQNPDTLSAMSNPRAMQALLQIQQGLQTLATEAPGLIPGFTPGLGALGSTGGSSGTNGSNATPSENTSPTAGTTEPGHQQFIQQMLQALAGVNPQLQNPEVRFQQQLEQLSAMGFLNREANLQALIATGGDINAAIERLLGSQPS

effect of a mutation on the interaction | Variant
with no effect | A80T

Variants of: B2
Conditions: with trip6_human TRIP6, Q15654
Chain of trip6_human TRIP6, Q15654 (Q15654 whole entry): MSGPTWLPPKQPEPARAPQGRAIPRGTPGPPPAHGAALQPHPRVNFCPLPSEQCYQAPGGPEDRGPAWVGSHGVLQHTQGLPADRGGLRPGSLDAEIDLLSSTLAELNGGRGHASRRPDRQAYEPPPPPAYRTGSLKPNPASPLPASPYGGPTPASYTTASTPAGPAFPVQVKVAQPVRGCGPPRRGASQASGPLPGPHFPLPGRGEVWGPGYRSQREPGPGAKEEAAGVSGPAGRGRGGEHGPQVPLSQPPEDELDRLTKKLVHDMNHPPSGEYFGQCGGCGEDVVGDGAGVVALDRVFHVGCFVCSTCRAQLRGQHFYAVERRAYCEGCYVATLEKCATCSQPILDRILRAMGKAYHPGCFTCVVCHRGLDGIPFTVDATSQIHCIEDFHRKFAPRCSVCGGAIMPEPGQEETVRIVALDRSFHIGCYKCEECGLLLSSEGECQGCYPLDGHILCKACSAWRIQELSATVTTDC

effect of a mutation on the interaction | Variant
with no effect | A80T

Variants of: B3
Conditions: with traf2_human TRAF2, Q12933
Chain of traf2_human TRAF2, Q12933 (Q12933 whole entry): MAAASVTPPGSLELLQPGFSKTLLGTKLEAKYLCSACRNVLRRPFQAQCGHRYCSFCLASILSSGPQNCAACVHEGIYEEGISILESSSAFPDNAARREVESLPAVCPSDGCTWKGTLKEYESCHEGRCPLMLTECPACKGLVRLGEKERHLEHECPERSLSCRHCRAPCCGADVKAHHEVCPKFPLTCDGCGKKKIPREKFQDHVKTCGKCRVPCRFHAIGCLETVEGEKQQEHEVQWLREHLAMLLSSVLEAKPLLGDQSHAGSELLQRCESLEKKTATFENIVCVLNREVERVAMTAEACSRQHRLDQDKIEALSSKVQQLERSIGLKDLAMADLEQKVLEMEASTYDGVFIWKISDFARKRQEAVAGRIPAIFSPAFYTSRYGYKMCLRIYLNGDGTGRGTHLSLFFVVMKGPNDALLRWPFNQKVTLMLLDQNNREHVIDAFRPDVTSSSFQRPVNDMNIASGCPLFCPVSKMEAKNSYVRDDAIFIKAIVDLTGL

effect of a mutation on the interaction | Variant
with no effect | R613Q
with no effect | M351V

Variants of: B3
Conditions: with cc136_human CCDC136, Q96JN2
Chain of cc136_human CCDC136, Q96JN2 (Q96JN2 whole entry): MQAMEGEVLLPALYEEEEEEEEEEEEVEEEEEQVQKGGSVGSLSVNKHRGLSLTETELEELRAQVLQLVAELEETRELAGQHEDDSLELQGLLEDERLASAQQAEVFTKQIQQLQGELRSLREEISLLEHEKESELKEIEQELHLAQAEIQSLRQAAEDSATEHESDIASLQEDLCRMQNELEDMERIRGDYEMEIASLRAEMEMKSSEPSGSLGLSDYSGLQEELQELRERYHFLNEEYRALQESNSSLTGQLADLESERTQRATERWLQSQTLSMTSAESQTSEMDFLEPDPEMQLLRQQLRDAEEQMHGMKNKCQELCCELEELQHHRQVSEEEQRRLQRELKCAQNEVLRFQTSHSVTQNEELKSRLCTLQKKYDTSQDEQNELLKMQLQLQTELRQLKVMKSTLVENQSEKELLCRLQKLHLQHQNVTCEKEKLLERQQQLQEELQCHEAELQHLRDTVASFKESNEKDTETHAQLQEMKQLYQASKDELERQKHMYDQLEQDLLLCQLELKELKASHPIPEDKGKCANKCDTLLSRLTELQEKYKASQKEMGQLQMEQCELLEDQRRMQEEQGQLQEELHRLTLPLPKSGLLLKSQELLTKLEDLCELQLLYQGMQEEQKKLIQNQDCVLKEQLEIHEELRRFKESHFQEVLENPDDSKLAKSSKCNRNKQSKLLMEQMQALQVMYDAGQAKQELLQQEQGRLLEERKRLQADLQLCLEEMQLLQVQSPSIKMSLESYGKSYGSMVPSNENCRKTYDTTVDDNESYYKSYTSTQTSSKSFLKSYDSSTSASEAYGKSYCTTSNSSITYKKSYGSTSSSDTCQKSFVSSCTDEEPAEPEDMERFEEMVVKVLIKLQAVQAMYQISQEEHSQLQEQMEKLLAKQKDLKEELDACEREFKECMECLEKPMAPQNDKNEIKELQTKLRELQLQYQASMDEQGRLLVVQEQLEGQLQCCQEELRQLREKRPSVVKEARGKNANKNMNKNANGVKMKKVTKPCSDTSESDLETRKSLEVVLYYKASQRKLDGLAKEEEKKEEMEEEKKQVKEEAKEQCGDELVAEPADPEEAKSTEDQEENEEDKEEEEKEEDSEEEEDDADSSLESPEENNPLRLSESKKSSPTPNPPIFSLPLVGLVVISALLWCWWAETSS

effect of a mutation on the interaction | Variant
with no effect | R613Q
with no effect | M351V

Variants of: B3
Conditions: with traf1_human TRAF1, Q13077
Chain of traf1_human TRAF1, Q13077 (Q13077 whole entry): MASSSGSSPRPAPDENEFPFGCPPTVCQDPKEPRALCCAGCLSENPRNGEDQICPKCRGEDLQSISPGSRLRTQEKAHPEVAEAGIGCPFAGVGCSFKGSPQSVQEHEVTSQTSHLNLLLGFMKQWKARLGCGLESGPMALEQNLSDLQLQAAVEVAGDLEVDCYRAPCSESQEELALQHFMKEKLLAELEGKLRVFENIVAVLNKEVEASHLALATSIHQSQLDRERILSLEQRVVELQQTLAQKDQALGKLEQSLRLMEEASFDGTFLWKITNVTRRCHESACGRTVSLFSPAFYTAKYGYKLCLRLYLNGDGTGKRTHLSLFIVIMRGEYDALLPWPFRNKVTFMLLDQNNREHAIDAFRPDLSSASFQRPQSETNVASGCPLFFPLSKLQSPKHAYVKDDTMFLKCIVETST

effect of a mutation on the interaction | Variant
with no effect | R613Q
with no effect | M351V

Variants of: B4
Conditions: with md2bp_human MAD2L1BP

effect of a mutation on the interaction | Variant
with no effect | G409E

Variants of: B5
Conditions: with sept7_human SEPTIN7, Q16181

effect of a mutation on the interaction | Variant
disrupting interaction strength | D197N
disrupting interaction strength | G169E
